Laboratory results taken from patent US20150351390A1, “COMPOSITIONS AND METHODS FOR AUXIN-ANALOG CONJUGATION” (PIONEER HI-BRED INTERNATIONAL, INC., priority 2012, published 2015).

Columns and labels:
Type in all cases: biochemical
[1] = LC-MS assay of GH3 conjugation of 2,4-D with Asp or Glu; conditions: LC-MS; for Detected auxin conjugates: 2,4-D-Asp: 2,4-D with Asp; for Detected auxin conjugates: 2,4-D-Glu: 2,4-D with Glu
In short: (§1)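 N-terminal His-tagged GH3 homologs, expressed in E. coli C41(DE3) and Ni-NTA purified, at 44 to 164 μg/mL incubated 3 h at 30 °C in 20 mM Tris-HCl pH 8.0, 5 mM MgCl2, 1 mM DTT, 5 mM ATP, 5 mM auxin (IAA, 2,4-D or dicamba) and 5 mM Asp or Glu. Conjugates quantified by LC-MS against standards after MeOH precipitation; kinetics from Michaelis-Menten fits of initial velocities.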

[2] = LC-MS assay of GH3 conjugation of IAA with Asp or Glu; conditions: LC-MS; for Detected auxin conjugates: IAA-Asp: IAA with Asp; for Detected auxin conjugates: IAA-Glu: IAA with Glu
In short: as §1

[3] = LC-MS assay of GH3 conjugation of dicamba with Asp or Glu; conditions: LC-MS; for Detected auxin conjugates: Dicamba-Asp: dicamba with Asp; for Detected auxin conjugates: Dicamba-Glu: dicamba with Glu
Protocol: To detect and monitor the formation of acyl conjugates with 2,4-D or dicamba, a sensitive LC-MS method was developed using the respective amino acid conjugate standards. […] […] […] The supernatant was diluted 20× in water and then analyzed by LC-MS (AB Sciex 4000 QTrap coupled with Shimadzu Nexera UHPLC) using a Phenomenex Luna 3 μm Phenyl-Hexyl (00B-4256-Y0) column. The concentration of the conjugates was calculated based on the standards. Kinetic parameters were estimated by fitting initial velocity values to the Michaelis-Menten equation.
The GH3 superfamily conjugase activity analysis of IAA, 2,4-D or dicamba with Asp or Glu was done using LC-MS to analyze the final conjugate products as described in Example 1. Protein sequences of GH3 homologs (Table 3) were obtained from public databases (NCBI, http://www.ncbi.nlm.nih.gov/) by Blast analysis of AtGH3.17 protein sequence (accession # Q9FZ87). Coding sequences were designed for optimal expression in E. coli based on the protein sequences and synthesized. Synthesized coding sequences along with N-term his-tag coding sequences were cloned into a pET24a-based E. coli expression vector. The E. coli expression vectors were transformed into OverExpress C41(DE3) cells (Lucigen) for protein expression. Recombinant E. coli strains were inoculated into 5 ml LB media supplemented with 40 mg/L kanamycin and cultured overnight at 37° C. The overnight culture (0.5 mL) was inoculated into 50 mL LB medium plus 40 mg/L kanamycin and grown at 30° C. until OD600 reached 0.6. The cultures were induced with 0.2 mM IPTG at 16° C., 230 rpm overnight. Cells were harvested by centrifugation at 7,000 rpm for 10 mins. The cell pellet from 50 mL of cell culture was frozen and thawed twice and then lysed in 800 μL lysis buffer A (150 mM NaCl, 50 mM Tris-HCl pH 8.0, 5 mM MgCl2, 10% glycerol) plus 20 mM imidazole, 1 mM DTT, 0.2 mg/ml lysozyme, 1/200 protease inhibitor cocktail (EMD set3, EDTA free) and 1/2000 endonuclease. Lysate was then centrifuged at 13,000 rpm for 30 min at 4° C. Supernatant was loaded onto 200 μL Ni-NTA columns pre-equilibrated with buffer A with 20 mM imidazole at 4° C. Each column was then washed with (1) 2×800 μL of buffer A with 10 mM imidazole, (2) 2×800 μL of buffer A with 20 mM imidazole and (3) 2×200 μL of buffer A with 50 mM imidazole. Protein was eluted with 200 μL of buffer A with 250 mM imidazole. The concentration was measured by Bradford assay. Purified protein was used in conjugation reaction assays as described in example 1.

| Molecule | Detected auxin conjugates: 2,4-D-Asp [1] | Detected auxin conjugates: 2,4-D-Glu [1] | Detected auxin conjugates: IAA-Asp [2] | Detected auxin conjugates: IAA-Glu [2] | Detected auxin conjugates: Dicamba-Asp [3] | Detected auxin conjugates: Dicamba-Glu [3] |
| --- | --- | --- | --- | --- | --- | --- |
| RcGH3-5: GH3 protein, accession EEF28472 (protein, listed as Ricinus communis) MTKNAERVQKETLKKILEENGSAEYLQNLGLDGRTDPESFKICVPICTHGDLEPYIQRIADGDSSPVLTGKPITTISLSSGTTQGKPKYVPFTDQLLDNTLQIFRTSFAYRNREFPLENGKALEFVFSSKQGKTKGGLAAGTATTNLFRNPNYKTALEELQFKSCSPREVIFGSDFHQSLYCHLLCGLIFREDIQFVFSTFAHSIVLAFRTFEQVWEELCDDIRNGELSSRITAPSIRTAMSHLLKPNAELADLIHTKCSGLSNWYGLIPELFPNAKYIYGIMTGSMEPYLKKLRHYAGELPLLSADYGASEGWIAANVNPLLPPELATFAVLPDIGYFEFIPLRRNGDHIYSEPKPIGLSDVKIGEEYEILVTNFAGFYRYRLGDVVKVMGFHNSTPELKFVCRRSLLLSINIDKNTEKDLQLVVEEAAKLLADEKLEVVDFSSLADRSTDPGHYVIFWEISGEPTAEVLQECCNCLDRSFLDAGYVTSRKVKAIGPLELRVVHRGTFQKILDHYLGLGAAVSQFKTPRCVGPANNVVSQILSNNVAKSYVSTAF | No | No | Yes | No | No | No |
| VvGH3-7: GH3 protein, accession XP_002272560 (protein, listed as Vitis vinifera) MESAAGAESNGEHEIIGWFEDVSENTGYVQTQTLCRILELNSGVEYLKKWLGDINVQEMEASALESLYTSLVPLASHADLETYIQRIADGDTSPILTNQPITTLSLSSGTTEGRQKYVPFTRHSSQTTLQIFQLAAAYRSRVYPITPGRRILEFIYSSKQFKTKGGLIAGTATTHYFASEEFKIKQEKTKSFTCSPEEVISSGDYKQSTYCHLLLGLHFHDEVEFITSTFAYSIVQAFRTFEELWRNICSDIREGIVSSRISLPKVRKAVSDIISPNPGLASWIEASCKELEDKDWFGLIPKLWPNAKYVYSIMTGSMQPYLKKLRHYAGDLPLVSADYGSTESWIGANIDPSSPPENVTFAVIPTFSYFEFIPLYRQNQNCSSSIDDFIEDEPVPLSQVKIGQEYEIVLTTFTGLYRYRLGDVVEVAGFHKGTPKLNFICRRKLILTVNIDKNTEKDLQSVVEVGSQLLGKTKAELVDFTSHADLVKQPGHYIIYWEIKGEADDKVLSECCNEMDACFVDQGYIVSRKTHSIGPLELCIVERGTFKKILDHFIGKGAALSQFKTPRCTADEVLLRILNVCTIKRFHSTAYG | No | No | Yes | No | No | No |
| VvGH3-9: GH3 protein, accession XP_002280738.1 (protein, listed as Vitis vinifera) MLEKMEEFKAEKVIEEFEELTKDAGRVQRETLKKILEDNASAEYLQKQGLNGRTDPESYQACVPLVTHADLVPYIKRIADGDTSPVLTGKPIKTMSLSSGTTQGKQKYVPFNDELLETTLQIYRTSFAFRNREFPVRNGMALQFIYGSKQFKTEGGLFAGTATTNVFSSSQFKTTMKAIESPCCSPDEVIFGPDFRQSLYCHLLCGLIHHNEIQLVSSTFAHSIVYAFRTFEQVWEQLCADIQDGVLTKDVTVPSIRAVMSKLLKPNPELAEWIYKKCSGLSNWYGVIPALFPNVKYVYGIMTGSMEPYLKKLRHYAGDVPLLSADYGSSEGWIGANINPKLPPELATYAVLPNIGYFEFIPLRGSAEEDRQDKIQSSFESKPVGLTEVKIGEEYEIIVTNFAGLYRYRLGDVVKIAGFHNMTPELQFVCRRNLLLTINIDKNTEKDLQLAVEAAAEVLAPEKVEVIDFTSQVDKSTDPGHYVIFWEISGEVSVEVSSECCNCLDRSFVDAGYISSRKVNSIGPLELKLVRRGTFQKILDHYLGIGGVLSQYKTPRCVNPNNNMVLQILYSNVVKSHFSTAFG | No | No | No | No | No | No |
| ZmACN26159: GH3 protein, accession ACN26159 (protein, Zea mays) MTICSSEEIIDEFELLTRDARRVQQDTLRKILELNGDAEYLNRFNLGRRTDSKSFKSCIPLCVHSDIESYIQRIADGDDSPVLTGKPITSLSLSSGTTQGKPKFLPFNDELLESTFQIFRTSYAFRNREYPIVNGKALQFVYGSKQVFTQGGILAATATTNLYRSQRFKEAMKDVMTQCCSPDEVIFGPDFHQSLYCHLLCGLINSDEVQFVFSPFAHSLVHAFHSLEEVWEDLCADIRDGVLSKRVTAPSIRQAVSKILRPNPELASSIYIKCQSLSNWYGVIPTLWPNVKYIYGIMTGSMEPYLKKLRHYAGHLPLLSADYGASEGWVGSNINPTLPPEEVTYAVLPNIAYFEFIPLEKPKWEETEICSSVHYIESEPVGLTEVEVGKIYEVVITNFAGLYRYRLGDIVKIAGFHNATPELQFICRRSLVLSVNIDKNTEKDLQLAVEAAEKLLAAEKLEVVDFTSLVDRSSEPGHYVIFWELSSDDGASEDVLSGCASCMDLAFADAGYVGSRKTQTIGALELRVLRKGAFAQVMNHYLSLGGAVSQFKTPRFVSQSNSKVLQILSRNVTRSYFSTAYGL | No | No | No | No | No | No |
| SlGH3-1: GH3 protein, SL2.40ch01: 78555183-78557768 (protein, listed as Solanum lycopersicum) MLEKIEMKFDPEEVIEEFEALTKEAGKVQEETLKKILEENGSTVYLQQWGLNGRTDPEIFKSCVPLVTHKDLEPYIQRIADGDLSPVLTGKPITTISLSSGTTQGRPKFVPFNDELMESTMQIYKTSFAFRNREFPIENGKALQFIYSSKQFKTKGGLAAGTATTNVYRNAHFKKTMRAMQTPCCSPDEVIFGPDFHQSLYCHLLCGLIFRDEVQVVSSTFAHSIVHAFRTFEQVWEELVADIREGVISSRVTVPSMRSAIMKLLKPDPEQADSIYNKCSGLSNWYGLIPVLFPSARYIYGIMTGSMEPYLKKLRHYAGELPLLSADYGSSEGWIGANVNPKLPPELVTYAVLPNIGYFEFIPLRVNLDGLEPTPVGLAEVKLGEEYEIVVTNFAGLYRYRLGDVVKIKGFHNATPELQFICRSNLILSINIDKSTEKDLQLAVEAAARLLVDEKLEVVDFTSHANVATDPGHYVVFWELSGEASDETLQECCNCLDKSFVDAGYVGSRKVNVIGALELRVVKKGTFHKILDHFVGLGGAVSQFKTPRCVGQNNSRLLQILCYDVVKSYFSTAY | No | No | Yes | No | No | No |
| SlGH3-8: GH3 protein, Solyc07g054580.2 (protein, listed as Solanum lycopersicum) MTNINCKDKIETDIIGWFDEVADDSAVVQRRTLRRILEMNHGVEYLKKWIGDIKIEEIDENLLESTYASLVPLASHADIEPFTKRIADGDTTPLLTQQPITNLSLSSGTTDGRQKFVPFTHHSSQTTLQIFKLAAAYRSRIYPIRRGGRILEFIYSSKQCKTKGGIIVGTATTHYYASDEFKIKQQQTKSFTCSPQEVISCGDYKQSTYCHLLLGLYFSHEVEFVTSAFAYSIVEAFRSFEEMWKELCHDIREGSLSSIINIDKVRKSVSGITQPNPELASRIESICVELERADWFSIIPKLWPNAKYVYSIMTGSMMPYLTKLRHYAGELPLVSADYGSTESWIGVNLDPSNPPEKVTFAVVPTFSYFEFIPLYKHKSNYNYQNVNLNSTNDDYIEGNSMPLCQVKSGQQYEIVITTFTGLYRYRLGDVVEVDGFYKKTPKLNFICRRNLILAINIDKNTEKDLQLVVERGARILSKGTRRAELVDFTSHANVTKQPGHYVIYWEIKGEIDEKVLDECCRDMDASFVDHGYVVSRRTKSIGPLELCIVERGTFKKILESYIGNGAALSQFKTPRCTSNKELLNILNVCTIKRFYSTAYG | Yes | Yes | Yes | Yes | No | No |
